Measurements published in patent US20200247849A1, “PEPTIDE AGONISTS AND ANTAGONISTS OF TLR4 ACTIVATION” (PEPTICOM LTD, priority 2016, published 2020).

Legend:
Type in all cases: cell-based
CD14-TLR4 = target: T1, CD14-TLR4 (Homo sapiens, UniProt P08571); assay: Reporter gene assay, NIH3T3 cells transfected with CD14 and TLR4, LPS-mediated activation; conditions: FIG. 6I
T1 construct: expressed in transfected cells; host or cells: NIH3T3
T1 sequence (P08571 20-345 limits assumed): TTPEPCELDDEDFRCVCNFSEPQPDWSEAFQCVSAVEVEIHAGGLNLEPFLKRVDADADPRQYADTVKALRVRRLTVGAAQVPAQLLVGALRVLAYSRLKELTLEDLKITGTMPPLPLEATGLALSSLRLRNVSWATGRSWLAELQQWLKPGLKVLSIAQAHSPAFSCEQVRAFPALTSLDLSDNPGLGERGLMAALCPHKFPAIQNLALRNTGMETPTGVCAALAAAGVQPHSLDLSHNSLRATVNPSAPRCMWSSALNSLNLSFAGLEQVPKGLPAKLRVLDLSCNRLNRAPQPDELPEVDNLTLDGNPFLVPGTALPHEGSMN
Source text: FIGS. 6A-6V present peptide activity using NIH3T3 cells that express TLR4, with either the MD2 co-receptor (top) or CD14 co-receptor (bottom), for peptides of SEQ ID Nos. 1-22, respectively, according to some embodiments of the invention. FIGS. 6A-6V show the dose response inhibitor/activator effects of the designed peptides using a reporter gene assay. The reporter gene assay is composed of NIH3T3 cells transfected with either MD2 or CD14 along with TLR4 and the NF-κB-inducible reporter gene Secreted Alkaline Phosphatase (SEAP) to monitor TLR4 activation (Burger-Kentischer et al. 2010, A new cell-based innate immune receptor assay for the examination of receptor activity, ligand specificity, signaling pathways and the detection of pyrogens. J Immunol Methods. 358(1-2): 93-103). […] The receptors are coupled to for the detection of inhibitory activity, cells were treated with the peptide prior to exposure to LPS and the response to LPS is measured at variable peptide doses (as labeled). […]
At Day 3: To determine the final SEAP value, 50 μl of the supernatant is carefully transferred in a new 96-well plate (Greiner-F-plate) and 50 μl of the substrate (pNPP; p-nitrophenyl phosphate) is added. SEAP catalyzes the hydrolysis of pNPP to the final product para-nitrophenol (yellow) which can be detected by a photometric analysis using an UV-VIS reader at 405 nm. […]

[1] = test system: primary mouse macrophages (expressing TLR4, MD2 and CD14); assay: TNF-a release from primary mouse macrophages exposed to LPS; conditions: FIG. 7
Source text: (§1) The top graph presents TNF-a release from primary mouse macrophages exposed to LPS treated with either peptide SEQ ID No. 9 or a control peptide while the bottom graph presents TNF-a release from primary mouse macrophages exposed to PAM3 treated with either peptide SEQ ID No. 9 or a control peptide. […] This method had been previously described (Lerner et al. 2011, Heparanase powers a chronic inflammatory circuit that promotes colitis-associated tumorigenesis in mice. J Clin Invest. 121(5): 1709-1721).

TLR1/2 = target: T2, TLR1/2 (Mus musculus, UniProt Q9EPQ1+Q9QUN7); assay: TNF-a release from primary mouse macrophages exposed to PAM3; conditions: primary mouse macrophages exposed to PAM3, FIG. 7
T2 construct: endogenous in cells; host or cells: primary mouse macrophages
Source text: as §1

T2 sequence (Q9EPQ1 26-795): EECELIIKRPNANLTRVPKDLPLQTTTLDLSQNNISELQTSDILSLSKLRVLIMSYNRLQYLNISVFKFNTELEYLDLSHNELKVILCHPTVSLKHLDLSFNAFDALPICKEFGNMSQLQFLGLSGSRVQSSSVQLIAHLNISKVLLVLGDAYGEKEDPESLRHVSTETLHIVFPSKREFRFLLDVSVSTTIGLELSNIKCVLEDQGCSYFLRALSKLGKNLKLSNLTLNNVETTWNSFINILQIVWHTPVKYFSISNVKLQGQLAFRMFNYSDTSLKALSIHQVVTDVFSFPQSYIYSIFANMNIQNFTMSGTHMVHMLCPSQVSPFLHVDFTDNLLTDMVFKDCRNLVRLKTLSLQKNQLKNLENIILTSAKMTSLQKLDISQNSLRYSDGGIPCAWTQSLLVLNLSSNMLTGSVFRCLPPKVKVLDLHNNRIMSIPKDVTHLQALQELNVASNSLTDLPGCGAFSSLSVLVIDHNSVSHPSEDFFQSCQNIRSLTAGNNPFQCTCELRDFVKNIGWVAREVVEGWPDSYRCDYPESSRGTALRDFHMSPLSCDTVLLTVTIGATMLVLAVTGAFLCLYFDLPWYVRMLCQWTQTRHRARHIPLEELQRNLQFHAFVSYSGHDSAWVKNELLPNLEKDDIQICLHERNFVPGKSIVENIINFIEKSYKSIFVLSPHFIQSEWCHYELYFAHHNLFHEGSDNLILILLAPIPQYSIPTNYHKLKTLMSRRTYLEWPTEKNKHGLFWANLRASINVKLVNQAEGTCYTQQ
T2 sequence (Q9QUN7 25-784): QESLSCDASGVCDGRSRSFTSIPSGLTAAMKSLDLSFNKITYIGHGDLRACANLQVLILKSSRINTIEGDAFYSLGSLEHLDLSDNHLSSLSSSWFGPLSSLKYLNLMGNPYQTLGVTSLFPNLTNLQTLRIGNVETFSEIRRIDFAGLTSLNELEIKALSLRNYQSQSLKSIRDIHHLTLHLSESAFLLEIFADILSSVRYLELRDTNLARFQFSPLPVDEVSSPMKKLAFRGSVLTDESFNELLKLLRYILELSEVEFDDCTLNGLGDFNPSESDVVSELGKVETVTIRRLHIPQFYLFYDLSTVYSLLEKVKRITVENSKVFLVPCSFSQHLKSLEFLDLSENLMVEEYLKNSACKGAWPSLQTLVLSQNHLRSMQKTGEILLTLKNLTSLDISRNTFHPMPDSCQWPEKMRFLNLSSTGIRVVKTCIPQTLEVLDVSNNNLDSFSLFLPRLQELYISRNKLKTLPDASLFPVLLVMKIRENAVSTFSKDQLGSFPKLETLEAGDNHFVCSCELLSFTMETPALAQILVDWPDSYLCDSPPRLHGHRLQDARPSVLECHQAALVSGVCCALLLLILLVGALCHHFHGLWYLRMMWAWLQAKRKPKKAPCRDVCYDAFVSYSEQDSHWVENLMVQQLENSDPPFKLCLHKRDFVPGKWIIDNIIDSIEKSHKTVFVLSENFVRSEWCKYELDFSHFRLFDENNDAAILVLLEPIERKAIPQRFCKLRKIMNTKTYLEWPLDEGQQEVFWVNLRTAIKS

## ILFMGMKWL (Inhibitor) [SEQ ID No. 9]
CD14-TLR4
  inhibition of LPS mediated CD14-TLR4 activation: inability of to inhibit
[1]
  effect on LPS-induced TNF-a release: inhibitory effect
TLR1/2
  effect on PAM3 induced TNF-a release: no significant effect
